Assay results published in patent US20220025023A1 (AC IMMUNE, published 2022).
Where no end group is shown, it is not given here.

What was measured:
[1] = molecular target: T1, TDP-3 peptide (human); assay: Luminex bead assay, TDP-3 peptide beads (irrelevant target)
T1 construct: Irrelevant control peptide; conjugated to Luminex beads in the assay; also called TDP-43 aa 310-370; irrelevant target
T1 peptide: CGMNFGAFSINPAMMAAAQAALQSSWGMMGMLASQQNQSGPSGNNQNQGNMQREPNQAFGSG

[2] = molecular target: T2, TDP-214 peptide (human); assay: indirect ELISA, 8-mer peptide library
T2 construct: 8-mer of human TDP-43; same ELISA method as for the biotinylated 15-mers
T2 peptide: YGDVMDVF
Experimental: (§1) Serum-free supernatants were harvested from stable hybridomas. The supernatants containing antibodies of interest were then screened by an indirect ELISA assay to determine epitopes. Epitopes were mapped using a library of TDP-43 15-mer peptides. Briefly, 96-well streptavidin-coated 96-well ELISA plates were incubated with 5 μg/mL of biotinylated 15-mer peptides spanning the amino acids (aa) 199-285 of human TDP-43 with 9 aa offset and 6 aa overlap. Plates were washed thoroughly with 0.05% Tween-20/PBS and then blocked with 1% bovine serum albumin (BSA) in 0.05% Tween-20/PBS for 1 hour at 37° C. The antibody contained in the hybridoma supernatant was then added at the indicated dilutions, and incubated for 2 hours at 37° C. after which the plates were washed as described previously. An AP-conjugated anti-mouse IgG secondary antibody (Jackson ImmunoResearch Laboratories, United Kingdom) was added at 1/1000 dilution in 0.05% Tween-20/PBS for 1 hour at 37° C. After the final wash, plates were incubated with pNPP (Sigma-Aldrich, Switzerland) an AP substrate solution, and read at 405 nm using an ELISA plate reader (Tecan).
(§2) Furthermore, antibodies were tested using an indirect ELISA on a peptide library of 8-mer peptides with 7 aa overlap covering the sequence of human TDP-43 from aa 210 to aa 231, using the same ELISA method as describe previously in this section.

[3] = molecular target: T3, TDP-221 peptide (human); assay: indirect ELISA, 8-mer peptide library
T3 construct: 8-mer of human TDP-43; same ELISA method as for the biotinylated 15-mers
T3 peptide: FIPKPFRA
Experimental: as §1, §2

[4] = molecular target: T4, TDP-222 peptide (human); assay: indirect ELISA, 8-mer peptide library
T4 construct: 8-mer of human TDP-43; same ELISA method as for the biotinylated 15-mers
T4 peptide: IPKPFRAF
Experimental: as §1, §2

[5] = molecular target: T5, TDP-212 peptide (human); assay: indirect ELISA, 8-mer peptide library
T5 construct: 8-mer of human TDP-43; same ELISA method as for the biotinylated 15-mers
T5 peptide: SQYGDVMD
Experimental: as §1, §2

[6] = molecular target: T6, TDP-216 peptide (human); assay: indirect ELISA, 8-mer peptide library
T6 construct: 8-mer of human TDP-43; same ELISA method as for the biotinylated 15-mers
T6 peptide: DVMDVFIP
Experimental: as §1, §2

[7] = molecular target: T7, TDP-210 peptide (human); assay: indirect ELISA, 8-mer peptide library
T7 construct: 8-mer of human TDP-43; same ELISA method as for the biotinylated 15-mers
T7 peptide: FFSQYGDV
Experimental: as §1, §2

[8] = molecular target: T8, TDP-223 peptide (human); assay: indirect ELISA, 8-mer peptide library
T8 construct: 8-mer of human TDP-43; same ELISA method as for the biotinylated 15-mers
T8 peptide: PKPFRAFA
Experimental: as §1, §2

[9] = molecular target: T9, TDP-219 peptide (human); assay: indirect ELISA, 8-mer peptide library
T9 construct: 8-mer of human TDP-43; same ELISA method as for the biotinylated 15-mers
T9 peptide: DVFIPKPF
Experimental: as §1, §2

[10] = molecular target: T10, TDP-224 peptide (human); assay: indirect ELISA, 8-mer peptide library
T10 construct: 8-mer of human TDP-43; same ELISA method as for the biotinylated 15-mers
T10 peptide: KPFRAFAF
Experimental: as §1, §2

[11] = molecular target: T11, TDP-220 peptide (human); assay: indirect ELISA, 8-mer peptide library
T11 construct: 8-mer of human TDP-43; same ELISA method as for the biotinylated 15-mers
T11 peptide: VFIPKPFR
Experimental: as §1, §2

[12] = molecular target: T12, TDP-217 peptide (human); assay: indirect ELISA, 8-mer peptide library
T12 construct: 8-mer of human TDP-43; same ELISA method as for the biotinylated 15-mers
T12 peptide: VMDVFIPK
Experimental: as §1, §2

[13] = molecular target: T13, TDP-211 peptide (human); assay: indirect ELISA, 8-mer peptide library
T13 construct: 8-mer of human TDP-43; same ELISA method as for the biotinylated 15-mers
T13 peptide: FSQYGDVM
Experimental: as §1, §2

[14] = molecular target: T14, TDP-213 peptide (human); assay: indirect ELISA, 8-mer peptide library
T14 construct: 8-mer of human TDP-43; same ELISA method as for the biotinylated 15-mers
T14 peptide: QYGDVMDV
Experimental: as §1, §2

[15] = molecular target: T15, TDP-218 peptide (human); assay: indirect ELISA, 8-mer peptide library
T15 construct: 8-mer of human TDP-43; same ELISA method as for the biotinylated 15-mers
T15 peptide: MDVFIPKP
Experimental: as §1, §2

[16] = molecular target: T16, TP-29 (also: biotinylated, site not given here); assay: indirect ELISA, biotinylated 15-mer on streptavidin plate, hybridoma supernatant
T16 construct: also called TP-29 peptide
T16 peptide: ISVHISNAEPKHNSN
Experimental: as §1

[17] = molecular target: T17, TP-30 (also: biotinylated, site not given here); assay: as above
T17 construct: also called TP-30 peptide
T17 peptide: PKHNSNRQLERSGRF
Experimental: as §1

[18] = molecular target: T18, TP-27 (also: biotinylated, site not given here); assay: as above
T18 construct: also called TP-27 peptide
T18 peptide: ADDQIAQSLCGEDLI
Experimental: as §1

[19] = molecular target: T19, TP-31 (also: biotinylated, site not given here); assay: as above
T19 construct: also called TP-31 peptide
T19 peptide: ERSGRFGGNPGGFGN
Experimental: as §1

[20] = molecular target: T20, TP-26 (also: biotinylated, site not given here); assay: as above
T20 construct: also called TP-26 peptide
T20 peptide: FRAFAFVTFADDQIA
Experimental: as §1

[21] = molecular target: T21, TP-28 (also: biotinylated, site not given here); assay: as above
T21 construct: also called TP-28 peptide
T21 peptide: CGEDLIIKGISVHIS
Experimental: as §1

[22] = molecular target: T22, TP-24 peptide (human, also: biotinylated, site not given here); assay: indirect ELISA, biotinylated 15-mer peptide on streptavidin plate, hybridoma supernatant
T22 construct: 15-mer of human TDP-43 from the library spanning aa 199-285; captured on streptavidin plates
T22 peptide: REFFSQYGDVMDVFI
Experimental: as §1

[23] = molecular target: T23, TP-25 peptide (human, also: biotinylated, site not given here); assay: as above
T23 construct: 15-mer of human TDP-43 from the library spanning aa 199-285; captured on streptavidin plates
T23 peptide: VMDVFIPKPFRAFAF
Experimental: as §1

[24] = molecular target: T24, TDP-215 peptide (human); assay: indirect ELISA, 8-mer peptide library, OD 405 nm
T24 construct: same ELISA method as for the biotinylated 15-mers
T24 peptide: GDVMDVFI
Experimental: as §1, §2

[25] = molecular target: T25, TDP-1 peptide (human); assay: Luminex bead assay, antibody serial dilution, TDP-1 peptide beads
T25 construct: Immunogen peptide; conjugated to Luminex beads in the assay; also called TDP-43 aa 212-272
T25 peptide: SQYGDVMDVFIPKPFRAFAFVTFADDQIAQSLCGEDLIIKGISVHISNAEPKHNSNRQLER

[26] = molecular target: T26, BSA (bovine, UniProt P02769); assay: indirect ELISA, control coat in the 15-mer series, hybridoma supernatant
T26 construct: not specified; also called bovine serum albumin
T26 sequence (P02769 25-607 limits assumed): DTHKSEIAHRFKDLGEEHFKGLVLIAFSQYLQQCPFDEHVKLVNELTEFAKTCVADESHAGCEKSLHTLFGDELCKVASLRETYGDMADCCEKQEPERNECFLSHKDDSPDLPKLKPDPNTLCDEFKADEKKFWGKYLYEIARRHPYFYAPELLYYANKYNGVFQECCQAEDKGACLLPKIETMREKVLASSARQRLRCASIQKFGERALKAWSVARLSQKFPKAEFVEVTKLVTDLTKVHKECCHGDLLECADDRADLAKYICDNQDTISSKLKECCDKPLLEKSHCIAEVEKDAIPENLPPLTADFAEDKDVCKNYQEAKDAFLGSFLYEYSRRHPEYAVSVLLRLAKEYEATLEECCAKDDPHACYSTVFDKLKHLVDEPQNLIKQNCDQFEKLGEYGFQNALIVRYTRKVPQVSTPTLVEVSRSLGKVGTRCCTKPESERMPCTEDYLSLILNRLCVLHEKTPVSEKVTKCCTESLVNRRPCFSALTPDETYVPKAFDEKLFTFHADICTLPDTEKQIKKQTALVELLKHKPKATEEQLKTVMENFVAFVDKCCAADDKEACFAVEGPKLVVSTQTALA

[27] = molecular target: T27, recombinant human full-length TDP-43 (human, UniProt Q13148 1-414); assay: SPR avidity (Biacore T200), TDP-43 monomer immobilised, antibody as analyte, 1:1 model
T27 construct: Recombinant full-length protein; also called FL TDP-43; recFL TDP-43
T27 sequence (Q13148 whole entry): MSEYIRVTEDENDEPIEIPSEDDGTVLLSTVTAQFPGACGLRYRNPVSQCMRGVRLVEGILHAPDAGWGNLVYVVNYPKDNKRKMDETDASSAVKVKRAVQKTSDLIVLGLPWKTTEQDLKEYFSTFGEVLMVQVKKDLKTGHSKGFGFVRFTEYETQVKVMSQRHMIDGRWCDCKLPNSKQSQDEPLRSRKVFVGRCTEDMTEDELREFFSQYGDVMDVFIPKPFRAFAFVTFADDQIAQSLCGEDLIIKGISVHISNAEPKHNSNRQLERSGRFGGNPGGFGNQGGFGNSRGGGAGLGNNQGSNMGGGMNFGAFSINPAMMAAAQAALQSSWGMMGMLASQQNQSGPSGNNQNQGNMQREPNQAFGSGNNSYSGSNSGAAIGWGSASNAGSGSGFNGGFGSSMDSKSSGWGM
Experimental: Avidity measurements were performed on an SPR instrument (Biacore T200, GE Healthcare Life Sciences) using CM5 Series S sensor chips. Recombinant human FL TDP-43 monomers or aggregated recombinant human FL TDP-43 was immobilized on a CM5 chip using amine coupling, injecting at a flow rate of 5 μl/min for 420 seconds. Conditions were optimized so that less than 200 RU protein was immobilized. Binding of the antibodies and the control antibody (2E2-D3) were obtained by injecting at: 1.37, 4.11, 12.33, 37, 111, and 333 nM in 1×PBS P+ at a flow rate of 50 μl/min for 90 s contact time and 600 s dissociation phase, with three regeneration cycles of the ligand surface by 10 mM Glycine-HCl (pH 1.7). Kinetics were analyzed using a 1:1 fitting model (see FIG. 8).

[28] = molecular target: T27, recombinant human full-length TDP-43; assay: Luminex bead assay, antibody serial dilution, FL TDP-43 beads

Binder	binding result [1]	binding result [2]	binding result [3]	binding result [4]	binding result [5]	binding result [6]	binding result [7]	binding result [8]	binding result [9]	binding result [10]	binding result [16]	binding result [17]	binding result [18]	binding result [19]	binding result [20]	binding result [21]	OD [22]	OD [23]	EC50 [25]	binding result [26]	other results
ACI-7062-412E12-Ab1 (antibody, IgG1, V domains shown, also called 412E12A2; clone 10) VH: DVQLVESGGGLVQPGGSRRLSCAASGFTFSRFGMHWVRQAPEKGLEWVAYIRSGSDIIYYADSVKGRFTISRDNPENTLFLQMTSLRSEDTAMYYCARSGTTVPFDYWGQGTSLTVSS VL: DIVMTQSPSSLAMSVGQKVTMSCKSSQSLLNSGDQKNYLAWYQQKPGQSPELLLYFASTRASGVPDRFIGSGSGTDFSLTISSVQAEDLADYFCQQHYSIPLTFGAGTKLELKR	no binding	no binding	no binding	no binding	no binding	no binding	no binding	no binding	no binding	no binding	no binding	no binding	no binding	no binding	no binding	no binding	3.2 O.D. (405 nm)	1.2 O.D. (405 nm)	< 0.01 nM	no binding	binding result [11]: no binding; binding result [12]: no binding; binding result [13]: no binding; binding result [14]: no binding; binding result [15]: no binding; binding result [24]: binds
ACI-7062-414A5-Ab1 (antibody, IgG2a, V domains shown, also called 414A5D2; clone 12) VH: DVQLVESGGGLVQPGGSRRLSCAASGFTFSSFGMHWVRQAPEKGLEWVAYIRSGSDIIYYADTVKGRFTISRDNPENTLFLEMTRLRSEDTAMYYCARSGTTVPFDYWGQGTSLTVSS VL: not shown	no binding	no binding	no binding	no binding	no binding	no binding	no binding	no binding	no binding	no binding	no binding	no binding	no binding	no binding	no binding	no binding	3.9 O.D. (405 nm)	1.2 O.D. (405 nm)	< 0.01 nM	no binding	binding result [11]: no binding; binding result [12]: no binding; binding result [13]: no binding; binding result [14]: no binding; binding result [15]: no binding; binding result [24]: binds
ACI-7062-415C4-Ab1 (antibody, IgG1, V domains shown, also called 415C4C6; clone 14) VH: QVTLKESGPGILQPSQTLSLTCSFSGFSLSTYGIGVGWIRQPSGKGLEWLAHIWWNDNKYYKTALKSRLTISKDTSNNQVFLKIASVDTADSATYYCARVYGNLYYFGYWGQGTTLTVSS VL: DVLMTQTPLSLPVSLGDQASISCRSSQSIVHSTGNTYLEWYLQKPGQSPKLLIYKVSNRFSGVPDRFSGSGSGTDFTLKISRVEAEDLGVYYCFQGSRVPTFGAGTKLELKR	no binding	no binding	no binding	no binding	no binding	no binding	no binding	no binding	no binding	no binding	no binding	no binding	no binding	no binding	no binding	no binding	3.8 O.D. (405 nm)	1.2 O.D. (405 nm)	< 0.01 nM	no binding	binding result [11]: no binding; binding result [12]: no binding; binding result [13]: no binding; binding result [14]: no binding; binding result [15]: no binding; binding result [24]: binds
ACI-7062-415H10-Ab2 (antibody, IgG3, V domains shown, also called 415H10B7; clone 17) VH: DVQLVESGGGLVQPGGSRKLSCAASGFTFSSFGMHWVRQAPEKGLEWVAYISSGSSNIYYTDTVKGRFTISRDNPKNTLFLQMTSLRSEDTAIYYCARSGTTVPFDYWGQGTTLTVSS VL: not shown	no binding										no binding	no binding	no binding	no binding	no binding	no binding	3.9 O.D. (405 nm)	1.2 O.D. (405 nm)	< 0.01 nM	no binding	Kd [27]: 1.1 nM; EC50 [28]: 0.16 nM
